Assay results from publication PMC10977726 (2024).

T1: rabbit serum albumin (rabbit, UniProt P49065 25-608, biotin)
T1 chain: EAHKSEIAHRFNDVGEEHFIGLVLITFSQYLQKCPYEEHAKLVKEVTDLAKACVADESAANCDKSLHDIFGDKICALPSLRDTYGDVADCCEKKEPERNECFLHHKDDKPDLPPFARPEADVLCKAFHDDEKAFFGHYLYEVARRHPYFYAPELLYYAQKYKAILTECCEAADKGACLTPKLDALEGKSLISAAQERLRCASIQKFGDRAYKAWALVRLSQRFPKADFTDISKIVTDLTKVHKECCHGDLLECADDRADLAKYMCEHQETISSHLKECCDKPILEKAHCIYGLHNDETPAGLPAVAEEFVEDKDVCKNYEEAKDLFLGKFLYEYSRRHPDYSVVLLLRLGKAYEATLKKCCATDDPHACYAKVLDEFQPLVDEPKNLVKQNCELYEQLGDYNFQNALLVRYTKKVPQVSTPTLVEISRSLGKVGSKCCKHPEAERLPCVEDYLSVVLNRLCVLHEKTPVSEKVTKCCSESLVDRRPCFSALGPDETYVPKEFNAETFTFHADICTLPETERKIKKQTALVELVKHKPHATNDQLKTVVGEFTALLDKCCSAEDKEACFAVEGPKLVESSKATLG

B1: Ig-AMP-1 (synthetic) (peptide)
chain: VGECVRGRCSKISCCSQFGYCGKGPKYCG
B2: mouse IgG Fc (domain or fragment)
chain: VPRDCGCKPCICTVPEVSSVFIFPPKPKDVLTITLTPKVTCVVVDISKDDPEVQFSWFVDDVEVHTAQTQPREEQFNSTFRSVSELPIMHQDWLNGKEFKCRVNSAAFPAPIEKTISKTKGRPKAPQVYTIPPPKEQMAKDKVSLTCMITDFFPEDITVEWQWNGQPAENYKNTQPIMNTNGSYFVYSKLNVQKSNWEAGNTFTCSVLHEGLHNHHTEKSLSHSPGK
modifications: biotin
B3: rat serum albumin (natural protein)
chain: EAHKSEIAHRFKDLGEQHFKGLVLIAFSQYLQKCPYEEHIKLVQEVTDFAKTCVADENAENCDKSIHTLFGDKLCAIPKLRDNYGELADCCAKQEPERNECFLQHKDDNPNLPPFQRPEAEAMCTSFQENPTSFLGHYLHEVARRHPYFYAPELLYYAEKYNEVLTQCCTESDKAACLTPKLDAVKEKALVAAVRQRMKCSSMQRFGERAFKAWAVARMSQRFPNAEFAEITKLATDVTKINKECCHGDLLECADDRAELAKYMCENQATISSKLQACCDKPVLQKSQCLAEIEHDNIPADLPSIAADFVEDKEVCKNYAEAKDVFLGTFLYEYSRRHPDYSVSLLLRLAKKYEATLEKCCAEGDPPACYGTVLAEFQPLVEEPKNLVKTNCELYEKLGEYGFQNAVLVRYTQKAPQVSTPTLVEAARNLGRVGTKCCTLPEAQRLPCVEDYLSAILNRLCVLHEKTPVSEKVTKCCSGSLVERRPCFSALTVDETYVPKEFKAETFTFHSDICTLPDKEKQIKKQTALAELVKHKPKATEDQLKTVMGDFAQFVDKCCKAADKDNCFATEGPNLVARSKEALA
modifications: biotin
B4: Ig-EET-1 (synthetic) (peptide)
chain: GCQAHYWYRVWFCKQDSDCLAGCVCGPNGFCG
B5: SA21 (peptide)
chain: RLIEDICLPRWGCLWEDD
B6: Ig-AMP-3 (synthetic) (peptide)
chain: VGECVRGRCSQISCCSQFGYCGKGPKYCG
B7: rabbit IgG Fc (domain or fragment)
chain: PSTCSKPTCPPPELLGGPSVFIFPPKPKDTLMISRTPEVTCVVVDVSQDDPEVQFTWYINNEQVRTARPPLREQQFNSTIRVVSTLPITHQDWLRGKEFKCKVHNKALPAPIEKTISKARGQPLEPKVYTMGPPREELSSRSVSLTCMINGFYPSDISVEWEKNGKAEDNYKTTPAVLDSDGSYFLYNKLSVPTSEWQRGDVFTCSVMHEALHNHYTQKSISRSPGK
modifications: biotin

How the values were obtained:
Assay in all cases: SPR
[1] = molecular target: B2
[2] = molecular target: B7
[3] = molecular target: Ig-CON-5 (synthetic)
[4] = molecular target: protein A (UniProt P38507 37-477)
[5] = molecular target: Hs-CHR-3 (synthetic)
[6] = molecular target: mouse serum albumin (mouse, UniProt P07724 25-608, biotin)
mouse serum albumin, sequence (P07724 25-608): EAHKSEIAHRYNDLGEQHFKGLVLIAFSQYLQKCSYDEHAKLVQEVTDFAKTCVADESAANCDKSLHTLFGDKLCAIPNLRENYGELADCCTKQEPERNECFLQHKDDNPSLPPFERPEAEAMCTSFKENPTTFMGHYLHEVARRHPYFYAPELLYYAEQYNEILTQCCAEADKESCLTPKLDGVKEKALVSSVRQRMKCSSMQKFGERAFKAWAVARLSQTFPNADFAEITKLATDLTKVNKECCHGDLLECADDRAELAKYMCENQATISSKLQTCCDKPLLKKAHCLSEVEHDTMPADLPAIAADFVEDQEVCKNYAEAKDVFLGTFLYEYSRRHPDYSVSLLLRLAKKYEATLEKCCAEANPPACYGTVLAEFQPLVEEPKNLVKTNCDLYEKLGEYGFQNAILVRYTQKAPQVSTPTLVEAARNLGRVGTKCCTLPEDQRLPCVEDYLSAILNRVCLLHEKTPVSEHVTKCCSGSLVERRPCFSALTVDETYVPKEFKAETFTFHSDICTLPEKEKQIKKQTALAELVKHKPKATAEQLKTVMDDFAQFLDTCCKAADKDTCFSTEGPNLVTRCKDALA

[7] = molecular target: human serum albumin (human, UniProt P02768 25-609, biotin)
[8] = molecular target: T1, rabbit serum albumin
[9] = molecular target: B3

Question: Which results are given for B1?
Answer: Kd [1]: > 20000 nM; Kd [2]: ~1410 nM

Question: With B2 as the binder, how does the Kd [3] read?
Answer: ~1200 nM

Question: And the Kd [4]?
Answer: 1.5 nM

Question: How did the Kd [5] turn out when B3 was run?
Answer: 2000 nM

Question: Which results are given for B4?
Answer: Kd [1]: > 20000 nM; Kd [2]: > 20000 nM

Question: B5 was tested. Which Kd [6] did it give?
Answer: 160 nM

Question: What about the Kd [7] of the same binder?
Answer: 650 nM

Question: What about the Kd [8] of the same binder?
Answer: 100 nM

Question: What about the Kd [9] of the same binder?
Answer: 190 nM

Question: Which Kd [2] does the source give for B6 here?
Answer: ~1850 nM

Question: B7 was tested. Which Kd [3] did it give?
Answer: > 30 nM

Question: What about the Kd [4] of the same binder?
Answer: 0.167 nM
